Key:
[1] = biological target: DMA-1::RFP (C. elegans); experiment: single molecule pull-down
[2] = biological target: DMA-1::GFPnovo2 (C. elegans); experiment: FRET or BRET

Row | percent of DMA-1::RFP speckles co-localized with HPO-30::GFP [1] | fraction of DMA-1::GFPnovo2 bound to HPO-30::mCherry [2] | Substance
1 | 56.1% |  | HPO-30::GFP (natural protein)
2 |  | 30% | HPO-30::mCherry (natural protein)
